Test results from patent publication US20230250154A1 (CYTONICS, published 2023).

Experiments:
Assay in all cases: cell-based or functional assay
[1] = target: MMP12 (human, UniProt P39900 106-470, limits assumed)
[2] = target: MMP8 (human, UniProt P22894 101-467, limits assumed)
[3] = target: T1, ADAMTS4 (human, UniProt O75173 213-685, limits assumed)
T1 sequence (looked up): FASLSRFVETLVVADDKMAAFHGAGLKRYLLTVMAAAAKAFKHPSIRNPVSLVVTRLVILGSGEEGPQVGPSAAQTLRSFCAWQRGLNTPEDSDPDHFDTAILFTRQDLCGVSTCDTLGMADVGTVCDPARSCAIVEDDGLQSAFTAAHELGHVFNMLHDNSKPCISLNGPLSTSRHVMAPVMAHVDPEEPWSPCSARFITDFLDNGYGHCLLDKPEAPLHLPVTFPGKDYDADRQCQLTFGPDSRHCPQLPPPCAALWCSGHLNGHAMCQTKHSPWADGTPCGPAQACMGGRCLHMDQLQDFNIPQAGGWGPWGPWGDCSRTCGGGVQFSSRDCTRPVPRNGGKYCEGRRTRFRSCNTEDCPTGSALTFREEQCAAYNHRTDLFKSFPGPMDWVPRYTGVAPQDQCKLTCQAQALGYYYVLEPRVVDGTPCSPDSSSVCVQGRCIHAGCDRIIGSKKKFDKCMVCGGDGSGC

[4] = target: T2, MMP2 (human, UniProt P08253 110-660, limits assumed)
T2 sequence (looked up): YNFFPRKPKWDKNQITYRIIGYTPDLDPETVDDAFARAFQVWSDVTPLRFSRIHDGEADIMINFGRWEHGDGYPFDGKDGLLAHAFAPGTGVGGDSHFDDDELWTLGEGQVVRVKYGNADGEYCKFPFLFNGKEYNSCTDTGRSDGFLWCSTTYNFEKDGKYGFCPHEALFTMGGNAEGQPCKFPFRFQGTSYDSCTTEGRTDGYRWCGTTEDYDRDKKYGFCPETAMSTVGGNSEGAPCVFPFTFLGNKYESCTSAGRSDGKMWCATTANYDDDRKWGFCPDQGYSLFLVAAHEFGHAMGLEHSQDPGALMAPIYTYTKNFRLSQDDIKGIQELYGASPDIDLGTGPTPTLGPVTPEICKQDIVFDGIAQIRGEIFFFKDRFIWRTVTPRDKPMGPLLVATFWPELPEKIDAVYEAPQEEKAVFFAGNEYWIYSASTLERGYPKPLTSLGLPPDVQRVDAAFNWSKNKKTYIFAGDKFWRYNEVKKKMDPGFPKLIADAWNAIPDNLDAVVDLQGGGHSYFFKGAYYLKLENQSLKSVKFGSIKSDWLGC

[5] = target: MMP13 (human, UniProt P45452 104-471, limits assumed)
[6] = target: T3, ADAMTS5 (human, UniProt Q9UNA0 262-622, limits assumed)
T3 sequence (looked up): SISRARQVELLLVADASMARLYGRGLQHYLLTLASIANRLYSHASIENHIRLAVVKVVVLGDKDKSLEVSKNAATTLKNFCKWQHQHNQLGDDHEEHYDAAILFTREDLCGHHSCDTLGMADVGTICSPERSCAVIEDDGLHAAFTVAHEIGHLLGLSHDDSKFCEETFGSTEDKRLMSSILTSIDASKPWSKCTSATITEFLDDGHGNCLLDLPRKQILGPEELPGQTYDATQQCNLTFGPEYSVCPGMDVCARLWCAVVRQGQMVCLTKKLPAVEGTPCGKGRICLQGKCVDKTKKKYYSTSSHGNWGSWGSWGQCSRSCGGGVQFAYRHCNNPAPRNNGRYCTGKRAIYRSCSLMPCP

[7] = target: T4, MMP1 (human, UniProt P03956 100-469, limits assumed)
T4 sequence (looked up): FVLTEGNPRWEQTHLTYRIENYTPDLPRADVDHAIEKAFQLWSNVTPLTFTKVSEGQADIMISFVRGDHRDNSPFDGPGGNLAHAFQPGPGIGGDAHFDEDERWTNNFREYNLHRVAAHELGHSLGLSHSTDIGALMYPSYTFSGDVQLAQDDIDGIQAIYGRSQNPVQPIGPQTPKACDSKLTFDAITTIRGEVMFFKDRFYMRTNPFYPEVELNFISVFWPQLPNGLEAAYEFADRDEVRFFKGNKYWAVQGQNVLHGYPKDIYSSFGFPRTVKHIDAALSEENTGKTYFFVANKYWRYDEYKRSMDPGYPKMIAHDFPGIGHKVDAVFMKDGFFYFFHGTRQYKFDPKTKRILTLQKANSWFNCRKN

[8] = target: MMP9 (human, UniProt P14780 107-707, limits assumed)
Sequence of MMP9 (P14780 107-707 limits assumed): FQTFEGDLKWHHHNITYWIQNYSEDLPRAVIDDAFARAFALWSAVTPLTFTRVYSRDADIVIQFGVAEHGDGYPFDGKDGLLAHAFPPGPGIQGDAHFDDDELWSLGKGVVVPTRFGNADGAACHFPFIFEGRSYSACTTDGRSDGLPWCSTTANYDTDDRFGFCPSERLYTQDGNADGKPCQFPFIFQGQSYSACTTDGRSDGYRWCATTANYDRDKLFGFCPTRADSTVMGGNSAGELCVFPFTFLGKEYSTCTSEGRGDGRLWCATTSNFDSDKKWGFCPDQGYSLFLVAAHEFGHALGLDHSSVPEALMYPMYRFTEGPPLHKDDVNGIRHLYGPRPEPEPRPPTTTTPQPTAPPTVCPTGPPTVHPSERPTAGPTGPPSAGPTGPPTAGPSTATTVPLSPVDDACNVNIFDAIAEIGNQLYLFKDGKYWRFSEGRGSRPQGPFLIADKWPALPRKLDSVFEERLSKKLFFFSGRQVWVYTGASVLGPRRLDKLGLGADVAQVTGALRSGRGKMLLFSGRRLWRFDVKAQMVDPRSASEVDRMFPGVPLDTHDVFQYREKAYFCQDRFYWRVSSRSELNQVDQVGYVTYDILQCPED

[9] = target: chymotrypsin
[10] = target: bovine trypsin (bovine, UniProt P00760 24-246)
Sequence of bovine trypsin (P00760 24-246): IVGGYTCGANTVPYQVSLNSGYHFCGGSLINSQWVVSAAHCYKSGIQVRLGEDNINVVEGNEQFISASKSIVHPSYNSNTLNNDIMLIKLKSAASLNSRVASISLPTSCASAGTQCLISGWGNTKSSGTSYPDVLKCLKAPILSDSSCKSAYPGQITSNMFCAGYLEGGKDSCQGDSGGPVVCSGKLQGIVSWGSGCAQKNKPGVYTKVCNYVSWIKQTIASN

[11] = target: T5, Cathepsin G (UniProt P08311 21-244)
T5 sequence (looked up): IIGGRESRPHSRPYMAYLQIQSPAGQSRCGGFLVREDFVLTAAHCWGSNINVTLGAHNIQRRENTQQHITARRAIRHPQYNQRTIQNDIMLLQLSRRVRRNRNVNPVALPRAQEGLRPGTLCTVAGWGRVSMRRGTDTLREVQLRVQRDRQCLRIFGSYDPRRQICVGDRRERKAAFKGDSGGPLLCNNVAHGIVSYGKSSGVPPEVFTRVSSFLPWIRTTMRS

[12] = target: Elastase
[13] = target: MMP3 (human, UniProt P08254 100-477, limits assumed)
Sequence of MMP3 (P08254 100-477 limits assumed): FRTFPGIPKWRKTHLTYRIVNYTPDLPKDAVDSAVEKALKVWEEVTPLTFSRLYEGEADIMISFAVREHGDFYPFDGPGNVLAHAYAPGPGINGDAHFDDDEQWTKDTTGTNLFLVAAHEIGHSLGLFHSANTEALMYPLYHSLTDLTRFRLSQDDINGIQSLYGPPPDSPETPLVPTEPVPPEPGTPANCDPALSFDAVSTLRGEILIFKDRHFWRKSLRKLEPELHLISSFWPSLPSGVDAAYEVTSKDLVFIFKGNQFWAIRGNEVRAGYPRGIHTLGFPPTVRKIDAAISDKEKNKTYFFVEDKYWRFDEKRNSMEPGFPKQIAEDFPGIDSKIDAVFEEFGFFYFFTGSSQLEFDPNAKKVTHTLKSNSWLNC

Sequence of MMP8 (P22894 101-467 limits assumed): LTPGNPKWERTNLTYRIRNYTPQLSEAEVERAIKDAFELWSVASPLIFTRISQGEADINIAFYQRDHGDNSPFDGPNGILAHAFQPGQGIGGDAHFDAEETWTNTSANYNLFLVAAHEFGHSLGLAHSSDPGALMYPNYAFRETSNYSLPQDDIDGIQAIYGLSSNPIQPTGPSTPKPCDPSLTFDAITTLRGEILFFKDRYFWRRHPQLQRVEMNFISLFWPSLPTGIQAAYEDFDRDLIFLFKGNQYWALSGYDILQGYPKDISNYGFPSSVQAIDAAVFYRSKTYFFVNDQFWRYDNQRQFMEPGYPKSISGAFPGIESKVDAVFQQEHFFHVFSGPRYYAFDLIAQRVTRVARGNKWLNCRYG
Sequence of MMP12 (P39900 106-470 limits assumed): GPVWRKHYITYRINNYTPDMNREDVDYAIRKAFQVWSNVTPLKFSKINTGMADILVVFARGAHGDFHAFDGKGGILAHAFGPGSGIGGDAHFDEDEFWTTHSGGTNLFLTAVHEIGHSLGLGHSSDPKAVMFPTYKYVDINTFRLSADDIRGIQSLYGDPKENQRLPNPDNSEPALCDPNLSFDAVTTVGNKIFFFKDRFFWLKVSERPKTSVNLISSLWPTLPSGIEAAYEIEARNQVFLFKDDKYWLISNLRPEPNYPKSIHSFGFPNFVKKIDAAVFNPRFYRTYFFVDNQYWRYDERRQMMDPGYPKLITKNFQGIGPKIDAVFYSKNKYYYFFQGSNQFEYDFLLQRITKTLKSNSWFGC

B1: Variant A2M, bait region SEQ ID NO 130 (other)
chain: SVSGKPQYMVLVPSLLHTETTEKGCVLLSYLNETVTVSASLESVRGNRSLFTDLEAENDVLHCVAFAVPKSSSNEEVMFLTVQVKGPTQEFKKRTTVMVKNEDSLVFVQTDKSIYKPGQTVKFRVVSMDENFHPLNELIPLVYIQDPKGNRIAQWQSFQLEGGLKQFSFPLSSEPFQGSYKVVVQKKSGGRTEHPFTVEEFVLPKFEVQVTVPKIITILEEEMNVSVCGLYTYGKPVPGHVTVSICRKYSDASDCHGEDSQAFCEKFSGQLNSHGCFYQQVKTKVFQLKRKEYEMKLHTEAQIQEEGTVVELTGRQSSEITRTITKLSFVKVDSHFRQGIPFFGQVRLVDGKGVPIPNKVIFIRGNEANYYSNATTDEHGLVQFSINTTNVMGTSLTVRVNYKDRSPCYGYQWVSEEHEEAHHTAYLVFSPSKSFVHLEPMSHELPCGHTQTVQAHYILNGGTLLGLKKLSFYYLIMAKGGIVRTGTHGLLVKQEDMKGHFSISIPVKSDIAPVARLLIYAVLPTGDVIGDSAKYDVENCLANKVDLSFSPSQSLPASHAHLRVTAAPQSVCALRAVDQSVLLMKPDAELSASSVYNLLPEKDLTGFPGPLNDQDDEDCINRHNVYINGITYTPVSSTNEKDMYSFLEDMGLKAFTNSKIRKPKMCPQLEQYEMHGPSEDLVVQIEGEGEGEGIPENFFGVEAIPMSIPTVEEPHTKLRKYFPETWIWDLVVVNSAGVAEVGVTVPDTITEWKAGAFCLSEDAGLGISSTASLRAFQPFFVELTMPYSVIRGEAFTLKATVLNYLPKCIRVSVQLEASPAFLAVPVEKEQAPHCICANGRQTVSWAVTPKSLGNVNFTVSAEALESQELCGTEVPSVPEHGRKDTVIKPLLVEPEGLEKETTFNSLLCPSGGEVSEELSLKLPPNVVEESARASVSVLGDILGSAMQNTQNLLQMPYGCGEQNMVLFAPNIYVLDYLNETQQLTPEIKSKAIGYLNTGYQRQLNYKHYDGSYSTFGERYGRNQGNTWLTAFVLKTFAQARAYIFIDEAHITQALIWLSQRQKDNGCFRSSGSLLNNAIKGGVEDEVTLSAYITIALLEIPLTVTHPVVRNALFCLESAWKTAQEGDHGSHVYTKALLAYAFALAGNQDKRKEVLKSLNEEAVKKDNSVHWERPQKPKAPVGHFYEPQAPSAEVEMTSYVLLAYLTAQPAPTSEDLTSATNIVKWITKQQNAQGGFSSTQDTVVALHALSKYGAATFTRTGKAAQVTIQSSGTFSSKFQVDNNNRLLLQQVSLPELPGEYSMKVTGEGCVYLQTSLKYNILPEKEEFPFALGVQTLPQTCDEPKAHTSFQISLSVSYTGSRSASNMAIVDVKMVSGFIPLKPTVKMLERSNHVSRTEVSSNHVLIYLDKVSNQTLSLFFTVLQDVPVRDLKPAIVKVYDYYETDEFAIAEYNAPCSKDLGNADYKDDDDKGASHHHHHH
- Protease Inhibition (% of WT) [1]: 124 % of WT
- Protease Inhibition (% of WT) [2]: 180 % of WT
- Protease Inhibition (% of WT) [3]: 110 % of WT
- Protease Inhibition (% of WT) [4]: 109 % of WT
- Protease Inhibition (% of WT) [5]: 146 % of WT
- Protease Inhibition (% of WT) [6]: 211 % of WT
- Protease Inhibition (% of WT) [7]: 283 % of WT
- Protease Inhibition (% of WT) [8]: 100 % of WT
- Protease Inhibition (% of WT) [9]: 100 % of WT
- Protease Inhibition (% of WT) [10]: 250 % of WT
- Protease Inhibition (% of WT) [11]: 311 % of WT
- Protease Inhibition (% of WT) [12]: 103 % of WT

B2: Variant A2M, bait region SEQ ID NO 108 (other)
chain: SVSGKPQYMVLVPSLLHTETTEKGCVLLSYLNETVTVSASLESVRGNRSLFTDLEAENDVLHCVAFAVPKSSSNEEVMFLTVQVKGPTQEFKKRTTVMVKNEDSLVFVQTDKSIYKPGQTVKFRVVSMDENFHPLNELIPLVYIQDPKGNRIAQWQSFQLEGGLKQFSFPLSSEPFQGSYKVVVQKKSGGRTEHPFTVEEFVLPKFEVQVTVPKIITILEEEMNVSVCGLYTYGKPVPGHVTVSICRKYSDASDCHGEDSQAFCEKFSGQLNSHGCFYQQVKTKVFQLKRKEYEMKLHTEAQIQEEGTVVELTGRQSSEITRTITKLSFVKVDSHFRQGIPFFGQVRLVDGKGVPIPNKVIFIRGNEANYYSNATTDEHGLVQFSINTTNVMGTSLTVRVNYKDRSPCYGYQWVSEEHEEAHHTAYLVFSPSKSFVHLEPMSHELPCGHTQTVQAHYILNGGTLLGLKKLSFYYLIMAKGGIVRTGTHGLLVKQEDMKGHFSISIPVKSDIAPVARLLIYAVLPTGDVIGDSAKYDVENCLANKVDLSFSPSQSLPASHAHLRVTAAPQSVCALRAVDQSVLLMKPDAELSASSVYNLLPEKDLTGFPGPLNDQDDEDCINRHNVYINGITYTPVSSTNEKDMYSFLEDMGLKAFTNSKIRKPKMCPQLEQYEMHGPEGLRVGEAIPMSIPTSEDLVVQIPENFFGVKLRKYFPETWIWDLVVVNSAGVAEVGVTVPDTITEWKAGAFCLSEDAGLGISSTASLRAFQPFFVELTMPYSVIRGEAFTLKATVLNYLPKCIRVSVQLEASPAFLAVPVEKEQAPHCICANGRQTVSWAVTPKSLGNVNFTVSAEALESQELCGTEVPSVPEHGRKDTVIKPLLVEPEGLEKETTFNSLLCPSGGEVSEELSLKLPPNVVEESARASVSVLGDILGSAMQNTQNLLQMPYGCGEQNMVLFAPNIYVLDYLNETQQLTPEIKSKAIGYLNTGYQRQLNYKHYDGSYSTFGERYGRNQGNTWLTAFVLKTFAQARAYIFIDEAHITQALIWLSQRQKDNGCFRSSGSLLNNAIKGGVEDEVTLSAYITIALLEIPLTVTHPVVRNALFCLESAWKTAQEGDHGSHVYTKALLAYAFALAGNQDKRKEVLKSLNEEAVKKDNSVHWERPQKPKAPVGHFYEPQAPSAEVEMTSYVLLAYLTAQPAPTSEDLTSATNIVKWITKQQNAQGGFSSTQDTVVALHALSKYGAATFTRTGKAAQVTIQSSGTFSSKFQVDNNNRLLLQQVSLPELPGEYSMKVTGEGCVYLQTSLKYNILPEKEEFPFALGVQTLPQTCDEPKAHTSFQISLSVSYTGSRSASNMAIVDVKMVSGFIPLKPTVKMLERSNHVSRTEVSSNHVLIYLDKVSNQTLSLFFTVLQDVPVRDLKPAIVKVYDYYETDEFAIAEYNAPCSKDLGNADYKDDDDKGASHHHHHH
- Protease Inhibition (% of WT) [2]: 40 % of WT
- Protease Inhibition (% of WT) [3]: 50 % of WT
- Protease Inhibition (% of WT) [4]: 110 % of WT
- Protease Inhibition (% of WT) [5]: 350 % of WT
- Protease Inhibition (% of WT) [13]: 330 % of WT
- Protease Inhibition (% of WT) [6]: 90 % of WT
- Protease Inhibition (% of WT) [7]: 390 % of WT
- Protease Inhibition (% of WT) [8]: 70 % of WT
- Protease Inhibition (% of WT) [9]: 100 % of WT
- Protease Inhibition (% of WT) [10]: 100 % of WT
- Protease Inhibition (% of WT) [12]: 50 % of WT
